Laboratory results taken from article PMC3811882, “The PR/SET Domain Zinc Finger Protein Prdm4 Regulates Gene Expression in Embryonic Stem Cells but Plays a Nonessential Role in the Developing Mouse Embryo”.
Changes are numbered by the printed parent chain.

B1: wild-type Bahcc1 (dsDNA)
DNA 1: GGCCTGGGTCGGCCCGCGGGGATCCTGGAAACCGTCCCCGGTTTATCTCCTT
DNA 2: GGAAGGAGATAAACCGGGGACGGTTTCCAGGATCCCCGCGGGCCGACCCAGG
B2: ΔGAAAC Bahcc1 (dsDNA)
DNA 1: B1 DNA 1 with G28T, A29C, A30C, A31C, C32A
DNA 2: B1 DNA 2 with G23T, T24G, T25G, T26G, C27A

Molecular target: Prdm4-ZFD (UniProt Q80V63 582-760)
Sequence (Q80V63 582-760): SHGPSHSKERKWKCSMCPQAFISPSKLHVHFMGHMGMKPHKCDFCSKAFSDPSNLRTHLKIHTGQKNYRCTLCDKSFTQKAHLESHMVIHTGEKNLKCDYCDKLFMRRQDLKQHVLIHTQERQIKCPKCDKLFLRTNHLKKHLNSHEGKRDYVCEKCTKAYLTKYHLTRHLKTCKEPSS
Assay: EMSA; EMSA as previously described (ref 41); 0.8% agarose gels for nuclear complexes, 5% acrylamide for purified His-tagged Prdm4; buffer, salt, pH and temperature not given
Settings: protein: recombinant; tags: His-HA; 5' overhang 2 nt (GG) on each strand

Row | Binder | binding result
1 | B1 | binds
2 | B2 | no binding
